The nature of series [1]: Solubility of proteins (lyophilized/reconstituted or ultrafiltered). The settings on record: produced in E. coli unless otherwise noted.
Experimental: Solubility. […] Protein samples were dried by lyophilization on a FreeZone Freeze Dry System (Labconco) using the manufacturer's standard protocol and then resuspended in buffer to the desired concentration. Centrifugal and tangential ultrafiltration were used to selectively remove buffer from the protein sample until the desired concentration was reached. Centrifugal ultrafiltration of protein solutions was performed by centrifugation (10,000×g) of 10 mg of protein in an Amicon centrifugal filter (Millipore) with a molecular weight cutoff of 3 kDa, 10 kDa, or 30 kDa, depending on the protein size, until the desired contrentration was reached. Ultrafiltration of protein solutions was performed on Hydrosart ultrafiltration cassettes (Sartorius Stedim, Bohemia, NY) with a molecular weight cutoff of 3 kDa, 10 kDa, or 30 kDa, depending on the protein size, at a cross flow rate of 12 L/m2/min. For most processes, transmembrane pressure was maintained at 20 psi and performed until the desired contrentration was reached.
The protein concentration of the above samples was measured by one or a combination of the following methods: Coomassie Plus Protein Assay, absorbance at 280 nm (A280), and total amino acid analysis. Coomassie Plus Protein Assays (Pierce) were performed according to the manufacturer's protocol. Absorbance at 280 nm was measured on a Nanodrop 2000 UV-Vis spectrophotometer. Protein concentration was determined using the A280 value and molar extinction coefficient, which was calculated by primary amino acid sequence using ProtParam (Gasteiger, Elisabeth, et al. The proteomics protocols handbook. Humana Press, 2005. 571-607.). Total amino acids were analyzed by HPLC after acid hydrolysis as described in Henderson, J. W., et al. Agilent Technologies (2010).
Series [2] can be described thus: Thermostability, ProteoStat Thermal Shift Stability Kit, temperature of aggregation. The format is physicochemical. The protocol: Thermostability. The thermostability of proteins in a buffer cocktail of Citric Acid and Dibasic Sodium Phosphate over a pH range of 2.8 to 7.1 (preparation described above in Table E31B) was determined using the ProteoStat® Thermal Shift Stability Kit (Enzo Life Sciences) according to the manufacturer's standard protocol. Briefly, protein solutions (˜10 mg/ml) containing 1× ProteoStat TS Detection Reagent were heated from 25° C. to 95° C. at a rate of 0.5° C. per 30 sec using a real-time PCR (rtPCR) thermocycler (BioRad) equipped with a plate reader (SynergyMx, Biotek) while monitoring the fluorescence with a Texas Red filter.

A short description of series [3]: Intact half-life during simulated gastric fluid (SGF) digestion. The settings on record: for SGF Half-life (t½): SGF pH 1.5, pepsin:polypeptide 1:20 w/w, 37° C., produced in E. coli unless otherwise noted; for Half-life: purified proteins, chip electrophoresis, SGF.
A short description of series [4]: pH solubility screen in Citric Acid / Dibasic Sodium Phosphate buffers. Conditions: for pH Range where Protein is >80% detected as Soluble and A650 <1 OD: Low: lower pH of range; for pH Range where Protein is >80% detected as Soluble and A650 <1 OD: High: upper pH of range. The format is physicochemical. The method, then:
pH Solubility. […] Protein was either lyophilized and then resuspended in buffer cocktail mixtures, or concentrated and then spiked into buffer cocktail mixtures at a final protein concentration of 5 to 30 mg/ml. As a control, protein was also dissolved in a solution of 8 M urea. Protein solutions were shaken for 10 min at room temperature. Turbidity of proteins was determined by measuring the absorbance of protein solutions at 650 nm. The protein solution was then centrifuged for 10 min at 1100×g to pellet undissolved or precipitated protein. The soluble protein fraction (supernatant) was sampled and protein concentration was measured by one or more of the following methods: Coomassie Plus Protein Assay (Pierce), Chip electrophoresis, gel electrophoresis, and/or absorbance at 280 nm. The pH range over which select proteins remained greater than 80% soluble as determined by Bradford and the A650 value are listed in Table E31C.

Series [5] has as its system kinase activity of SEQID-00338 (AMP + ATP→2ADP). The experiment in a line: Kinase activity of SEQID-00338 and mutants, ADP-Glo Max Assay. Format: biochemical. The settings on record: 7 μg/mL, 30 minute reaction at 30° C.; N=2. The method, then:
Determination of the kinase activity of SEQID-00338. The ADP-Glo™ Max Assay was obtained from Promega (Catalog number V7001, Madison, WI). Adenosine Monophosphate was obtained from Sigma-Aldrich (Catalog number A1752, St. Louis, MO). 5× Kinase Buffer was prepared w/1.211 g Tris Base (Catalog number BP152-2, Fisher Bioreagents, Pittsburgh, PA), 692 μL 12% hydrochloric acid solution (Catalog number BDH3026-500MLP, VWR, Radnor, PA), 10.0 mL 500 mM magnesium chloride (Catalog number BP214-500, Fisher Bioreagents, Pittsburgh, PA) and the volume brought to 50 mL with MilliQ water and filtered through 0.22 μm PES filter (Catalog number SCGP00525, Millipore, Billerica, MA) into a sterile 50 mL tube.
Twelve his-tag purified mutant proteins and the wild-type protein at 35 μg/mL in Tris buffer were serially diluted to 7.0 and 1.4 μg/mL. Prepared kinase reaction mix at 0.5 mM AMP/0.5 mM ATP to test for activity and at 0 mM AMP/0 mM ATP to assay background activity by diluting 5× Kinase Buffer with appropriate volumes of 10 mM AMP and 10 mM ATP in MilliQ water. Duplicate reactions were prepared by mixing 9 μL of the reaction mixture with 6 μL of diluted SEQID-00338, mixing by pipetting up and down and dispensing 5 μL into a 384-well white OptiPlate (PerkinElmer, Waltham, MA). An ADP standard curve was prepared by serially diluting 4 mM ADP in MilliQ water and adding kinase buffer to 1× for a standard at 0.0005, 0.001, 0.005, 0.01, 0.05, 0.1, 1.5, 1, 2, 3, and 4 mM ADP. The plate was covered with a foil plate seal and incubated at 30° C. for 30 min. Following the kinase reaction, 5 μL of ADP-Glo™ Reagent was added to each well. The plate was sealed with a foil plate seal and placed on a horizontal plate shaker at 450 rpm for 2 minutes at room temperature. The plate was removed from the plate shaker and incubated at room temperature for 40 minutes. The plate was then centrifuged for 15 seconds at 1109× rcf and 10 μL of ADP-Glo™ Max Detection Reagent was added. The plate was sealed with a foil plate seal and shaken on a horizontal plate shaker at 450 rpm at room temperature for 2 minutes. The plate was then removed from the plate shaker and incubated at room temperature for 60 minutes. The plate was centrifuged for 15 seconds at 1109× rcf and the luminescence read on an EnspireAlpha plate reader (PerkinElmer, Waltham, MA).
The ADP standard curve was used to determine the concentration of ADP in sample wells in the presence or absence of substrate. Concentrations were determined by performing a non-linear 4 parameter logistic on the X=log(X) transformed ADP standard luminescence values. […] Where the background concentration of ADP in the absence of substrate was calculable the average of those values were subtracted from the calculated ADP concentration in the substrate incubated wells. Activity knock out was calculated by percentage activity relative to purified wild-type protein at the same concentration.
For orientation: In ADP-Glo the light output rises with the ADP produced.

Substitutions are numbered along the chain they refer to. Names may count otherwise.

B1: SEQID-00265: nutritive polypeptide (protein, listed as Bos taurus)
chain: SEGDRLRVELAEKANKLQNELDNVSTLLEEAEKKGIKFAKDAAGLESQLQDTQELLQEETRQKLNLSSRIRQLEEERSSLQEQQEEEEEARRSLEKQLQALQAQLTDTKKKVDDDLGTIENLEEAKKKLLKDVEVLSQRLEEKALAYDKLEKTKTRLQQELDDLLVDLDHQRQIVSNLEKKQKKFDQLLAEEKNISARYAEERDRAEAEAREKETKALSLARALEEALEAREEAERQNKQLRADMEDLMSSKDDVGKNVHELEKSKRALE
The Solubility is the concentration that dissolves in the medium under given conditions. A higher Solubility goes with much dissolved substance. With B1, the “Solubility” value in series [1] stood at 95 mg/mL. Moreover, the “Tagg (pH 7.1)” value in series [2] (heated from 25° C. to 95° C.) is more than 95. The “SGF Half-life (t½)” value in series [3] was 29 min. Further, in series [4], the “pH Range where Protein is >80% detected as Soluble and A650 <1 OD: Low” value (“pH Range where Protein is >80% detected … Low” below) turned out to be 5.1; the “pH Range where Protein is >80% detected as Soluble and A650 <1 OD: High” value (shortened to “pH Range where Protein is >80% detected … High”) is on record as 9.1. Besides, in series [4] (other pH where soluble), the “pH Range where Protein is >80% detected as Soluble and A650 <1 OD: Other” value was 3.

B2: SEQID-00099: nutritive polypeptide (protein, listed as Thermosynechococcus elongatus)
chain: MNQSEILEKVKAIVADQLSVDPEKVVPEASFAEDLNADSLDSVELIMALEEEFGVEIPDEEAEKLKTVQDVLDFINNKVAA
With B2, in series [1], the “Solubility” value came out at 91 mg/mL. Further, in series [2] (heated from 25° C. to 95° C.), the “Tagg (pH 7.1)” value worked out at 64. In addition, the “SGF Half-life (t½)” value in series [3] is 1 min.

B3: SEQID-00598: nutritive polypeptide naturally produced in Flaxseed, recombinantly expressed in E. coli (protein, listed as Linum usitatissimum)
chain: MSRRCPGKNAWPELVGKSGNMAAATVERENRNVHAIVLKEGSAMTKDFRCDRVWVIVNDHGVVTSVPHIT
As to B3, the “Solubility” value in series [1] stood at 150 mg/mL. In series [3], the “SGF Half-life (t½)” value is recorded as 0.5 min and the “Half-life” value is given as 0.5 min.

B4: SEQID-00269: nutritive polypeptide (protein)
chain: DLKKKLDDDLGTLENLEELKKKLLKDLELLSQRLEELALAYDKLEKTKTRLQQELDDLLLDLDHQ
Turning to B4, in series [2] (heated from 25° C. to 95° C.), the “Tagg (pH 7.1)” value is recorded as more than 95. Besides, the “SGF Half-life (t½)” value in series [3] was 41 min. Further, in series [4], the “pH Range where Protein is >80% detected … Low” value turned out to be 7.2; the “pH Range where Protein is >80% detected … High” value was 9.1.

B5: R134M: single amino acid mutant of SEQID-00338 at substrate binding position 134 (protein, listed as Saccharomyces cerevisiae)
chain: MSSSESIRMVLIGPPGAGKGTQAPNLQERFHAAHLATGDMLRSQIAKGTQLGLEAKKIMDQGGLVSDDIMVNMIKDELTNNPACKNGFILDGFPRTIPQAEKLDQMLKEQGTPLEKAIELKVDDELLVARITGMLIHPASGRSYHKIFNPPKEDMKDDVTGEALVQRSDDNADALKKRLAAYHAQTEPIVDFYKKTGIWAGVDASQPPATVWADILNKLGKD
modifications: strain ATCC 204508 / S288c
For the molecule B5, in series [5], the “AVG proportion activity, percentage AMP + ATP→2ADP converted relative to wild-type” value was found to be 0.3%.

B6: R42C: single amino acid mutant of SEQID-00338 at substrate binding position 42 (protein, listed as Saccharomyces cerevisiae)
chain: B5 chain with R42C, M134R
modifications: strain ATCC 204508 / S288c
Turning to B6, in series [5], the “AVG proportion activity, percentage AMP + ATP→2ADP converted relative to wild-type” value is given as 1.8%.

B7: R134Y: single amino acid mutant of SEQID-00338 at substrate binding position 134 (protein, listed as Saccharomyces cerevisiae)
chain: B5 chain with M134Y
modifications: strain ATCC 204508 / S288c
For the molecule B7, in series [5], the “AVG proportion activity, percentage AMP + ATP→2ADP converted relative to wild-type” value is 0.2%.

B8: R42A: single amino acid mutant of SEQID-00338 at substrate binding position 42 (protein, listed as Saccharomyces cerevisiae)
chain: B5 chain with R42A, M134R
modifications: strain ATCC 204508 / S288c
With B8, the “AVG proportion activity, percentage AMP + ATP→2ADP converted relative to wild-type” value in series [5] was found to be 0.9%.

B9: SEQID-00236: nutritive polypeptide (protein, listed as Bos taurus)
chain: ALQEAHQQTLDDLQAEEDKVNTLTKAKTKLEQQVDDLEGSLEQEKKLRMDLERAKRKLEGDLKLA
Regarding B9, in series [1], the “Solubility” value amounted to 60 mg/mL. Moreover, in series [3], the “SGF Half-life (t½)” value was 10 min.

B10: SEQID-00102: nutritive polypeptide (protein, listed as Lactobacillus johnsonii)
chain: MTEEEIFNKIADMISERFSIDRDKITKDLNFQNDLDADSIDFVELVMDLEDTFGAEIPDDDAEKLQTVGEAVEYIKSHQN
Consider B10, for which the “Solubility” value in series [1] was 120 mg/mL. In addition, the “Tagg (pH 7.1)” value in series [2] (heated from 25° C. to 95° C.) is recorded as more than 95. Moreover, the “SGF Half-life (t½)” value in series [3] is reported as 0.6 min.

B11: SEQID-00622: protein of the 168 nutritive polypeptide library (protein, listed as Oryza sativa)
chain: MASEGAVSPAFAYTVVYVKDVAKSAAFYSAAFGYTVRRLDQSHKWAELESGTTTIAFTPLHQRETDALTGAVQLPDSAGERGPVEICFDYADVDAAYRRAVDSGAVPVSPPEQKSWGQKVGYVRDIDGIIVRMGSHVRA
modifications: subsp. japonica
notes: protein of the 168 nutritive polypeptide library
On to B11, for which the “Tagg pH 2.8” value in series [2] (pH 2.8, NS = protein not soluble) is 58.5. For the same molecule, the “Tagg pH 3.7” value in series [2] (pH 3.7, NS = protein not soluble) came out at 42. In series [2] (pH 3.9, NS = protein not soluble), the “Tagg pH 3.9” value turned out to be 42. The “Tagg pH 4.3” value in series [2] (pH 4.3, NS = protein not soluble) was determined as 43.5. Also, the “Tagg pH 4.6” value in series [2] (pH 4.6, NS = protein not soluble) turned out to be 43.5. Further, the “Tagg pH 5.0” value in series [2] (pH 5.0, NS = protein not soluble) was found to be 42.5. Also, the “Tagg pH 5.6” value in series [2] (pH 5.6, NS = protein not soluble) worked out at 45.5. The “Tagg pH 6.0” value in series [2] (pH 6.0, NS = protein not soluble) amounted to 46. Also, the “Tagg pH 6.5” value in series [2] (pH 6.5, NS = protein not soluble) came to 47. For the same molecule, the “Tagg (pH 7.1)” value in series [2] (heated 25° C. to 95° C., NS = protein not soluble) is given as 95. Further, in series [3], the “SGF Half-life (t½)” value is 6.6 min and the “Half-life” value is on record as 6.6 min. In addition, in series [4], the “pH Range where Protein is >80% detected … Low” value is recorded as 2.8; the “pH Range where Protein is >80% detected … High” value came to 7.1.

B12: SEQID-00115: nutritive polypeptide (protein, listed as Sus scrofa)
chain: EDEDDKTVSDLAVVLFETATLRSGYLLPDTKAYGDRIERMLRLSLNIDPDAKVEEEPEEEPEETTEDTTEDTEQDDDEEMDAGADEEEQETSETSTAEKDE
Take B12: the “Solubility” value in series [1] is 70 mg/mL.

The values are drawn from patent US20260069656A1, “Nutritive Polypeptides and Formulations Thereof, and Methods of Production and Use Thereof” (Axcella Health Inc., priority 2013, published 2026).
